Data: patent US20250179144A1

Legend:
[1] = molecular target: full-length human BTN3A1 on transfected cells pre-treated (cross-linked) with anti-BTN3A mAb clone 20.1 (human); assay: flow cytometry, FRET (YG 670/30) between TCR tetramer-PE and anti-BTN3A 20.1-AF647 on BTN3A1+ NIH-3T3 cells; with IgG1κ-AF647 the gate holds 0.02, with SAv 0
[2] = molecular target: BTN2A1 ectodomain homodimer, disulfide-linked (C-terminal Cys247, acidic or basic leucine zipper) (human) (UniProt Q7KYR7); assay: SPR, soluble TCR over immobilised BTN2A1 homodimer, KD at equilibrium
Sequence of BTN2A1 ectodomain homodimer, disulfide-linked (C-terminal Cys247, acidic or basic leucine zipper) (human) (Q7KYR7 29-248, chain 1 of 2): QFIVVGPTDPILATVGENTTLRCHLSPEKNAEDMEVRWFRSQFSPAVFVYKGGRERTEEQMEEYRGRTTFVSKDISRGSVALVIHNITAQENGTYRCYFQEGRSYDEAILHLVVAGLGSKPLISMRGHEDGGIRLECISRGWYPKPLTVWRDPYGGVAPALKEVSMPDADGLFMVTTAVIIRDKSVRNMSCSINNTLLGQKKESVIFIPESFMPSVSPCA
Sequence of BTN2A1 ectodomain homodimer, disulfide-linked (C-terminal Cys247, acidic or basic leucine zipper) (human) (Q7KYR7 29-248, chain 2 of 2): as the sequence (Q7KYR7 29-248, chain 1 of 2) above

[3] = molecular target: BTN2A1 (WT) and BTN3A1 (WT) co-expressed on NIH-3T3 cells (human) (UniProt Q7KYR7); assay: flow cytometry on NIH-3T3 cells co-transfected with BTN2A1 WT and BTN3A1 WT, no zoledronate
Sequence of BTN2A1 (WT) and BTN3A1 (WT) co-expressed on NIH-3T3 cells (human) (Q7KYR7 29-527, chain 1 of 2): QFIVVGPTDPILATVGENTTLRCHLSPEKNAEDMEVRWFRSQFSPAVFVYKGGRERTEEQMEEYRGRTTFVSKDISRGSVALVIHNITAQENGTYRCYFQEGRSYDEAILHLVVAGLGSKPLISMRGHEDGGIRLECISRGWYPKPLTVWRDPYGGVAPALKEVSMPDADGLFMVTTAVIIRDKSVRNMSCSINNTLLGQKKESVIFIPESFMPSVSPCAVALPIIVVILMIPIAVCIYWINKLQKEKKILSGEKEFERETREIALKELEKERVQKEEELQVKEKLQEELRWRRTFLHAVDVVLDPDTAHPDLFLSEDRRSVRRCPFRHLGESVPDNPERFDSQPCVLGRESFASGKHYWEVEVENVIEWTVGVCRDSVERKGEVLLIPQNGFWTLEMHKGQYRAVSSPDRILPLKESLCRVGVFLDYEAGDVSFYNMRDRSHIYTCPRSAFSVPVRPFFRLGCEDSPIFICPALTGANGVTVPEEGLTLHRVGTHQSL
Sequence of BTN2A1 (WT) and BTN3A1 (WT) co-expressed on NIH-3T3 cells (human) (chain, as listed by the source, chain 2 of 2): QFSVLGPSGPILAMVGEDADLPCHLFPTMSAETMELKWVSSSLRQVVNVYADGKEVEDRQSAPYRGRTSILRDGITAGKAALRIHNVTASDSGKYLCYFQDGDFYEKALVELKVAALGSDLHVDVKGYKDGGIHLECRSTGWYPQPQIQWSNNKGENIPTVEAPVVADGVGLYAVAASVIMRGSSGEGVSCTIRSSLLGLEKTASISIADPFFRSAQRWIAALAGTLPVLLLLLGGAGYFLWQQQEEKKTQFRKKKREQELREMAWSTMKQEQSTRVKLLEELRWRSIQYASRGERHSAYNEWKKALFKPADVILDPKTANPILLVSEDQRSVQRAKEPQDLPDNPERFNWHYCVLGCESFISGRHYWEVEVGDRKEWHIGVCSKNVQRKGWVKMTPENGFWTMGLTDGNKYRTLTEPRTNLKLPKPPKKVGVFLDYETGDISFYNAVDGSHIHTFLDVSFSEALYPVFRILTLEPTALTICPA

[4] = molecular target: BTN2A1 (Ser44-Arg) and BTN3A1 (WT) co-expressed on NIH-3T3 cells (human) (UniProt Q7KYR7); assay: flow cytometry on NIH-3T3 cells co-transfected with BTN2A1 Ser44-Arg and BTN3A1 WT, zoledronate (100 µM)
Sequence of BTN2A1 (Ser44-Arg) and BTN3A1 (WT) co-expressed on NIH-3T3 cells (human) (Q7KYR7 29-527 S72R, chain 1 of 2): as the sequence (Q7KYR7 29-527, chain 1 of 2) above, with S44R counted along it
Sequence of BTN2A1 (Ser44-Arg) and BTN3A1 (WT) co-expressed on NIH-3T3 cells (human) (chain, as listed by the source S44R S44R, chain 2 of 2): as the sequence (chain, as listed by the source, chain 2 of 2) above

[5] = molecular target: BTN2A1 (Ser44-Arg) and BTN3A1 (WT) co-expressed on NIH-3T3 cells (human) (UniProt Q7KYR7); assay: flow cytometry on NIH-3T3 cells co-transfected with BTN2A1 Ser44-Arg and BTN3A1 WT, no zoledronate
[6] = molecular target: BTN2A1-BTN3A1-zipper ectodomain complex (construct #1, long linker version with high affinity zippers) (human); assay: SPR, equilibrium; BTN2A1-BTN3A1 ectodomain complex immobilised, soluble TCR injected
[7] = molecular target: BTN2A1 (Ser44-Arg) and BTN3A1 (Glu106-Ala) co-expressed on NIH-3T3 cells (human) (UniProt Q7KYR7); assay: flow cytometry on NIH-3T3 cells co-transfected with BTN2A1 Ser44-Arg and BTN3A1 Glu106-Ala, zoledronate (100 µM)
Sequence of BTN2A1 (Ser44-Arg) and BTN3A1 (Glu106-Ala) co-expressed on NIH-3T3 cells (human) (Q7KYR7 29-527 S72R limits assumed, chain 1 of 2): as the sequence (Q7KYR7 29-527, chain 1 of 2) above, with S44R counted along it
Sequence of BTN2A1 (Ser44-Arg) and BTN3A1 (Glu106-Ala) co-expressed on NIH-3T3 cells (human) (chain, as listed by the source S44R E106A S44R E106A limits assumed, chain 2 of 2): as the sequence (chain, as listed by the source, chain 2 of 2) above, with E106A counted along it

[8] = molecular target: BTN2A1 (WT) and BTN3A1 (WT) co-expressed on NIH-3T3 cells (human) (UniProt Q7KYR7); assay: flow cytometry on NIH-3T3 cells co-transfected with BTN2A1 WT and BTN3A1 WT, zoledronate (100 µM)
[9] = molecular target: BTN2A1 (WT) and BTN3A1 (Glu106-Ala) co-expressed on NIH-3T3 cells (human) (UniProt Q7KYR7); assay: flow cytometry on NIH-3T3 cells co-transfected with BTN2A1 WT and BTN3A1 Glu106-Ala, zoledronate (100 µM)
Sequence of BTN2A1 (WT) and BTN3A1 (Glu106-Ala) co-expressed on NIH-3T3 cells (human) (Q7KYR7 29-527 limits assumed, chain 1 of 2): as the sequence (Q7KYR7 29-527, chain 1 of 2) above
Sequence of BTN2A1 (WT) and BTN3A1 (Glu106-Ala) co-expressed on NIH-3T3 cells (human) (chain, as listed by the source E106A E106A limits assumed, chain 2 of 2): as the sequence (chain, as listed by the source, chain 2 of 2) above, with E106A counted along it

[10] = molecular target: full-length human BTN3A1 on transfected cells (human) (UniProt O00481); assay: flow cytometry, γδTCR tetramer-PE on BTN3A1-transfected NIH-3T3 cells treated with isotype IgG1κ (black number); SAv control 25
Sequence of full-length human BTN3A1 on transfected cells (human) (O00481 30-513): as the sequence (chain, as listed by the source, chain 2 of 2) above

[11] = molecular target: BTN2A1 (WT) and BTN3A1 (Glu106-Ala) co-expressed on NIH-3T3 cells (human) (UniProt Q7KYR7); assay: flow cytometry on NIH-3T3 cells co-transfected with BTN2A1 WT and BTN3A1 Glu106-Ala, no zoledronate
[12] = molecular target: BTN2A1 (Ser44-Arg) and BTN3A1 (Glu106-Ala) co-expressed on NIH-3T3 cells (human) (UniProt Q7KYR7); assay: flow cytometry on NIH-3T3 cells co-transfected with BTN2A1 Ser44-Arg and BTN3A1 Glu106-Ala, no zoledronate

Sequence of full-length human BTN3A1 on transfected cells pre-treated (cross-linked) with anti-BTN3A mAb clone 20.1 (human) (O00481 30-513): as the sequence (chain, as listed by the source, chain 2 of 2) above

B1: soluble G115 Vγ9Vδ2+ TCR Lys53δ-Ala (TCR, from a related filing)
TCR delta: AIELVPEHQTVPVSIGVPATLRCSMKGEAIGNYYINWYRKTQGNTMTFIYREADIYGPGFKDNFQGDIDIAKNLAVLKILAPSERDEGSYYCACDTLGMGGEYTDKLIFGKGTRVTVEPRSQPHTKPSVFVMKNGTNVACLVKEFYPKDIRINLVSSKKITEFDPAIVISPSGKYNAVKLGKYEDSNSVTCSVQHDNKTVHSTDFEVKTDSTDHVKPKETENTKQPSKSCHKPKAIVHTEK
TCR gamma: AGHLEQPQISSTKTLSKTARLECVVSGITISATSVYWYRERPGEVIQFLVSISYDGTVRKESGIPSGKFEVDRIPETSTSTLTIHNVEKQDIATYYCALWEAQQELGKKIKVFGPGTKLIITDKQLDADVSPKPTIFLPSIAETKLQKAGTYLCLLEKFFPDVIKIHWEEKKSNTILGSQEGNTMKTNDTYMKFSWLTVPEKSLDKEHRCIVRHENNKNGVDQEIIFPPIKTDVITMDPKDNCSKDANDTLLLQLTNTSA
[1]
  % cells in the FRET gate: 34%
[2]
  Kd: 81 µM

B2: soluble G115 Vγ9Vδ2+ TCR His85γ-Ala (TCR, from a related filing, V domains shown)
V domain 1: AIELVPEHQTVPVSIGVPATLRCSMKGEAIGNYYINWYRKTQGNTMTFIYREKDIYGPGFKDNFQGDIDIAKNLAVLKILAPSERDEGSYYCACDTLGMGGEYTDKLIFGKGTRVTVEP
V domain 2: AGHLEQPQISSTKTLSKTARLECVVSGITISATSVYWYRERPGEVIQFLVSISYDGTVRKESGIPSGKFEVDRIPETSTSTLTIANVEKQDIATYYCALWEAQQELGKKIKVFGPGTKLIITD
[3]
  mean fluorescence intensity of TCR tetramer (black gate): 635
[4]
  mean fluorescence intensity of TCR tetramer (black gate): 28100
[5]
  mean fluorescence intensity of TCR tetramer (black gate): 10800
[6]
  Kd: 740 µM
[7]
  mean fluorescence intensity of TCR tetramer (black gate): 26600
[8]
  mean fluorescence intensity of TCR tetramer (black gate): 1700
[9]
  mean fluorescence intensity of TCR tetramer (black gate): 23300
[10]
  MFI of PE (GFP+ gate): 33
[11]
  mean fluorescence intensity of TCR tetramer (black gate): 7210
[12]
  mean fluorescence intensity of TCR tetramer (black gate): 11300

B3: soluble G115 Vγ9Vδ2+ TCR Glu52δ-Ala (TCR, from a related filing, V domains shown)
V domain 1: AIELVPEHQTVPVSIGVPATLRCSMKGEAIGNYYINWYRKTQGNTMTFIYRAKDIYGPGFKDNFQGDIDIAKNLAVLKILAPSERDEGSYYCACDTLGMGGEYTDKLIFGKGTRVTVEP
V domain 2: AGHLEQPQISSTKTLSKTARLECVVSGITISATSVYWYRERPGEVIQFLVSISYDGTVRKESGIPSGKFEVDRIPETSTSTLTIHNVEKQDIATYYCALWEAQQELGKKIKVFGPGTKLIITD
[6]
  Kd: 140 µM
[10]
  MFI of PE (GFP+ gate): 32
[2]
  Kd: 93 µM

B4: G115 Vγ9Vδ2+ TCR tetramer Lys108γ-Ala (TCR, from a related filing, V domains shown)
V domain 1: AIELVPEHQTVPVSIGVPATLRCSMKGEAIGNYYINWYRKTQGNTMTFIYREKDIYGPGFKDNFQGDIDIAKNLAVLKILAPSERDEGSYYCACDTLGMGGEYTDKLIFGKGTRVTVEP
V domain 2: AGHLEQPQISSTKTLSKTARLECVVSGITISATSVYWYRERPGEVIQFLVSISYDGTVRKESGIPSGKFEVDRIPETSTSTLTIHNVEKQDIATYYCALWEAQQELGAKIKVFGPGTKLIITD
[10]
  MFI of PE (GFP+ gate): 25

B5: G115 Vγ9Vδ2+ TCR tetramer with combined His85γ-Ala and Glu52δ-Ala mutations (TCR, from a related filing, V domains shown)
V domain 1: AIELVPEHQTVPVSIGVPATLRCSMKGEAIGNYYINWYRKTQGNTMTFIYRAKDIYGPGFKDNFQGDIDIAKNLAVLKILAPSERDEGSYYCACDTLGMGGEYTDKLIFGKGTRVTVEP
V domain 2: AGHLEQPQISSTKTLSKTARLECVVSGITISATSVYWYRERPGEVIQFLVSISYDGTVRKESGIPSGKFEVDRIPETSTSTLTIANVEKQDIATYYCALWEAQQELGKKIKVFGPGTKLIITD
[10]
  MFI of PE (GFP+ gate): 38
